Here are results for 7 molecules from PMC8442553 (Science (New York, N.Y.), 2019).

What all share (test): cryo-EM structure
The target in assay [1] is T1, Sth1 (yeast, UniProt P32597 1-1359).
T1 sequence: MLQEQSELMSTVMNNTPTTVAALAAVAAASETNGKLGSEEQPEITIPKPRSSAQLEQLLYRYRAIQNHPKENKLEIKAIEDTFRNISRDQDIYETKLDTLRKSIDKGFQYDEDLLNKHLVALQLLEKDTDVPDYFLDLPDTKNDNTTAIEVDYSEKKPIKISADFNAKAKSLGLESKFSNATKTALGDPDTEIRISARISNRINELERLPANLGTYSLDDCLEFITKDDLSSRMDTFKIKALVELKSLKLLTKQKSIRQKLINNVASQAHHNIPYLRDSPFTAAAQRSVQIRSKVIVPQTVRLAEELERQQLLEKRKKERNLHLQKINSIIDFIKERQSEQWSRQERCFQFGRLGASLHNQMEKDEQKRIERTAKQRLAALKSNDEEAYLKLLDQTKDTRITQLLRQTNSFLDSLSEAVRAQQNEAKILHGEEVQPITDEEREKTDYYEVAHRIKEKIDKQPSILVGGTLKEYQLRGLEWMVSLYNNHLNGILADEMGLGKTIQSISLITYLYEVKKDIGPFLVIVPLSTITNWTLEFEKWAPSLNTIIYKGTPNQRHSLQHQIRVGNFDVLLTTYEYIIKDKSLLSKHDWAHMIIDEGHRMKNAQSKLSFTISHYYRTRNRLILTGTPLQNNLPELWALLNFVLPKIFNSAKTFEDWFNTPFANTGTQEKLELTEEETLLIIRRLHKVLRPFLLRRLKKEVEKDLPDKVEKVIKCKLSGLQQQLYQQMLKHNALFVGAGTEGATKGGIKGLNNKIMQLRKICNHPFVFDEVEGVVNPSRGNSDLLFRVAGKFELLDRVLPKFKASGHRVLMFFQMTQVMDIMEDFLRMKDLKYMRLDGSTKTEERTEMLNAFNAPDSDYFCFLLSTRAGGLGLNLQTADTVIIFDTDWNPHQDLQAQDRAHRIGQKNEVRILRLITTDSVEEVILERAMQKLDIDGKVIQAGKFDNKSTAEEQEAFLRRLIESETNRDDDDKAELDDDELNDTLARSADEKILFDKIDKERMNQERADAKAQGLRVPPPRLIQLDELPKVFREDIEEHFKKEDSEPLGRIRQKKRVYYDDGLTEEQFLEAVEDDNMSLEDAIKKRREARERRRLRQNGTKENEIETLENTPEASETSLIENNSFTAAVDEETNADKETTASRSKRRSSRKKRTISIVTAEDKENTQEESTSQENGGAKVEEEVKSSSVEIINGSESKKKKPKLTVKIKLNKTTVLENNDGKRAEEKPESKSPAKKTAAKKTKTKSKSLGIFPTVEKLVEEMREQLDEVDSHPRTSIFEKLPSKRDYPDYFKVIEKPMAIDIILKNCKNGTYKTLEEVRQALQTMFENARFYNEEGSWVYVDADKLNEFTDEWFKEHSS

Assay [2] deals with T2, Rsc8 (yeast, UniProt P43609 1-557).
T2 sequence: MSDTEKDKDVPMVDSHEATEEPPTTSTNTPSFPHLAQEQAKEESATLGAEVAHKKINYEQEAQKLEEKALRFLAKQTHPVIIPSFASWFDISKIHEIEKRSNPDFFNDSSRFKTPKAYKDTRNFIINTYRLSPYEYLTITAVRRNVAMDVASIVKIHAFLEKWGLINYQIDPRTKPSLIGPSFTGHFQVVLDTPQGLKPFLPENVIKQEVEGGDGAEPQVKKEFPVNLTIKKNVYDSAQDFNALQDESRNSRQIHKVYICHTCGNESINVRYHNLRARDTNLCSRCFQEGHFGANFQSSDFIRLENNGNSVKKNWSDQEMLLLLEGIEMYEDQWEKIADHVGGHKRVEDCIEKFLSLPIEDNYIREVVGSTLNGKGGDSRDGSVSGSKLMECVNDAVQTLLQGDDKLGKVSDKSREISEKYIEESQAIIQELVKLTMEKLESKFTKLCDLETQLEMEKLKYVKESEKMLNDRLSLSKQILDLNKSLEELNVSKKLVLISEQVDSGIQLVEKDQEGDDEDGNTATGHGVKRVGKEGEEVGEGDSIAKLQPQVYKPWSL

In assay [3] the target is T3, Rsc3 (yeast, UniProt Q06639 1-885).
T3 sequence: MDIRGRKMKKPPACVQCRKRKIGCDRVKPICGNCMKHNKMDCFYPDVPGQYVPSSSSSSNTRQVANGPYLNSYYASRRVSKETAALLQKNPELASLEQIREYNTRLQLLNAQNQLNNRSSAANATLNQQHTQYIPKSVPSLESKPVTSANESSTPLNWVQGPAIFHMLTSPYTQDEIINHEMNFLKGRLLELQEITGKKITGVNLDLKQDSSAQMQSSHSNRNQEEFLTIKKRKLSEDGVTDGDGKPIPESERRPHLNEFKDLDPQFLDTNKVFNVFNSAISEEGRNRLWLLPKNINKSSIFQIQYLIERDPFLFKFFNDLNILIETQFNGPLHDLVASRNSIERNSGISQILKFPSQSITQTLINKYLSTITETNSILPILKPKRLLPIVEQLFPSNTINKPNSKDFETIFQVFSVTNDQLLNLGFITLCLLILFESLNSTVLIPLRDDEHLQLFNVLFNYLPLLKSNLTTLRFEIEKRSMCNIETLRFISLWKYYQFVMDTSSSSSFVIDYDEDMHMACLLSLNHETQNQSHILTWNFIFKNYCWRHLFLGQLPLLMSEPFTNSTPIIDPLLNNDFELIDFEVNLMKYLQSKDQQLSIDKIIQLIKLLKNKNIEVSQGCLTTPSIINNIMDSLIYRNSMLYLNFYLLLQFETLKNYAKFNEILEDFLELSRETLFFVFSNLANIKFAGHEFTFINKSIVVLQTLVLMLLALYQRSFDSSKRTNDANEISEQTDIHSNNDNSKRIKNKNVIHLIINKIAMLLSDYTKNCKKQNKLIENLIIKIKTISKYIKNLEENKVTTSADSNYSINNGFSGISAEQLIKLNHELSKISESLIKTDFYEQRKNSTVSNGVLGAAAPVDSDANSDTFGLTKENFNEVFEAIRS

B1: Arp7 (natural protein, yeast)
chain: MTLNRKCVVIHNGSHRTVAGFSNVELPQCIIPSSYIKRTDEGGEAEFIFGTYNMIDAAAEKRNGDEVYTLVDSQGLPYNWDALEMQWRYLYDTQLKVSPEELPLVITMPATNGKPDMAILERYYELAFDKLNVPVFQIVIEPLAIALSMGKSSAFVIDIGASGCNVTPIIDGIVVKNAVVRSKFGGDFLDFQVHERLAPLIKEENDMENMADEQKRSTDVWYEASTWIQQFKSTMLQVSEKDLFELERYYKEQADIYAKQQEQLKQMDQQLQYTALTGSPNNPLVQKKNFLFKPLNKTLTLDLKECYQFAEYLFKPQLISDKFSPEDGLGPLMAKSVKKAGASINSMKANTSTNPNGLGTSHINTNVGDNNSTASSSNISPEQVYSLLLTNVIITGSTSLIEGMEQRIIKELSIRFPQYKLTTFANQVMMDRKIQGWLGALTMANLPSWSLGKWYSKEDYETLKRDRKQSQATNATN
B1: in assay [1], the binding result is reported as “binds”.

B2: Htl1 (natural protein, yeast)
chain: MSQNNTISSMNPERAYNNVTLKNLTAFQLLSQRENICELLNLVESTERHNSIINPERQRMSLEEMKKMLDALKNERKK
Consider B2, for which, in assay [2], the binding result is on record as “binds”.

B3: Rsc30 (natural protein, yeast)
chain: MMDMQVRKVRKPPACTQCRKRKIGCDRAKPICGNCVKYNKPDCFYPDGPGKMVAVPSASGMSTHGNGQGSNHFSQGNGVNQKNVMIQTQYPIMQTSIEAFNFSFNPSVDTAMQWTKAASYQNNNTNNNTAPRQNSSTVSSNVHGNTIVRSDSPDVPSMDQIREYNTRLQLVNAQSFDYTDNPYSFNVGINQDSAVFDLMTSPFTQEEVLIKEIDFLKNKLLDLQSLQLKSLKEKSNLNADNTTANKINKTGENSKKGKVDGKRAGFDHQTSRTSQSSQKYFTALTITDVQSLVQVKPLKDTPNYLFTKNFIIFRDHYLFKFYNILHDICHINQFKVSPPNNKNHQQYMEVCKVNFPPKAIIIETLNSESLNNLNIEEFLPIFDKTLLLEFVHNSFPNGDTCPSFSTVDLPLSQLTKLGELTVLLLLLNDSMTLFNKQAINNHVSALMNNLRLIRSQITLINLEYYDQETIKFIAITKFYESLYMHDDHKSSLDEDLSCLLSFQIKDFKLFHFLKKMYYSRHSLLGQSSFMVPAAENLSPIPASIDTNDIPLIANDLKLLETQAKLINILQGVPFYLPVNLTKIESLLETLTMGVSNTVDLYFHDNEVRKEWKDTLNFINTIVYTNFFLFVQNESSLSMAVQHSSNNNKTSNSERCAKDLMKIISNMHIFYSITFNFIFPIKSIKSFSSGNNRFHSNGKEFLFANHFIEILQNFIAITFAIFQRCEVILYDEFYKNLSNEEINVQLLLIHDKILEILKKIEIIVSFLRDEMNSNGSFKSIKGFNKVLNLIKYMLRFSKKKQNFARNSDNNNVTDYSQSAKNKNVLLKFPVSELNRIYLKFKEISDFLMEREVVQRSIIIDKDLESDNLGITTANFNDFYDAFYN
With B3, the binding result in assay [3] is on record as “binds”.

B4: Arp9 (natural protein, yeast)
chain: MAPFRQDSILIIYPRSQTTLVQFGLNEETFTVPELEIPTQIYRTTRQDGSYTYHSTNKDNKAELIKPIQNGEIIDISAFTQFLRLIFVSILSDRANKNQDAFEAELSNIPLLLITHHSWSQSDLEIITQYVFESLEINNLIQLPASLAATYSMISLQNCCIIDVGTHHTDIIPIVDYAQLDHLVSSIPMGGQSINDSLKKLLPQWDDDQIESLKKSPIFEVLSDDAKKLSSFDFGNENEDEDEGTLNVAEIITSGRDTREVLEERERGQKVKNVKNSDLEFNTFWDEKGNEIKVGKQRFQGCNNLIKNISNRVGLTLDNIDDINKAKAVWENIIIVGGTTSISGFKEALLGQLLKDHLIIEPEEEKSKREEEAKSVLPAATKKKSKFMTNSTAFVPTIEYVQCPTVIKLAKYPDYFPEWKKSGYSEIIFLGAQIVSKQIFTHPKDTFYITREKYNMKGPAALWDVQF
B4: the binding result in assay [1] is “binds”.

B5: Rsc58 (natural protein, yeast)
chain: MTESVGGNKLVDFLVNVQSILNAASVKCHVVDESFPAKFFEKNPDKIYESYCKFIKNRSNSEGLIRNEDKLVLTTINKRFENGEYEPIQGGFYKLYHDIKLVCTILIHFYPQGTRNYQLVDKFYKFSSELLLRECCRIGIALTQTNNIKSRSGKLLSGNEMDEYDDDDATELDKIISYDFIKISMNYTVPISQTYQIRTKDMDLFSSIISKSNLDKRPHELPNTNFKINNVLPQTDIENEAPRLGFVGANTSNIPDPTLPPTEMMTRFLHPNWYALPTTVWLKYGNYNSWAPSFNENGTVVDSTTRGLIWLERIGYMDLYEKNEKKVKQEELLNTNEEGINRKQNDENNKNVDGKSNGVQDDGGDNDNDATIASANSESTENKEQFIIKLQNLYNWTPSNYIGDDEIENFRNGTPDKLVSDSLLKLKRLRKERILNKVLKPTTEERELYFKVKRILKEVILAKKVSKVPINNVRAFPVLQTNYNGSIPVVRAQPGRKRKHKK
For B5, the binding result in assay [2] and in assay [1] was “binds” in each case.

B6: Rtt102 (natural protein, yeast)
chain: MDPQTLITKANKVSYYGNPTSKESWRYDWYQPSKVSSNVQQPQQQLGDMENNLEKYPFRYKTWLRNQEDEKNLQRESCEDILDLKEFDRRILKKSLMTSHTKGDTSKATGAPSANQGDEALSVDDIRGAVGNSEAIPGLSAGVNNDNTKESKDVKMN
As to B6, the binding result in assay [1] was “binds”.

B7: Rsc7 (natural protein, yeast)
chain: MSDSEGGLASEVEHEKRSRSTSNRPNYAIDTEDLDIDENDENEDDDYREEEANEGVNEEEISDEEEQINKSGRNKRRHVDEEEDLSEDKGVTRSRNRSKFKKPVFPGIDDAEENLNPLKVVNEEYVLPDDPEGETKITADGDLLGGREFLVRTFTLTEKGNRKFMLATEPARIVGFRDSYLFFQTHPNLYKFILNQTQKNDLIDRGVLPYSYRNRQIALVTARGVFKEFGAKIIRGGKHITDDYYASELRTKGNVIEGKLAGDPIDKSARALETMMYPASENGINPAKNQVEFFEHRPHGHMSNSNIIASGSKLSSTNWLYQHSAACSRFNSDLFYDRVKVLLVDQQGLRDAYTNILHIPESTQSTTVLGWRRSKNDSPSDTSIVYETVIHDNDLNKPKTGLSEIPKEIYEDVVDEDVLRAITEQQNFEKCNEYI
As to B7, in assay [2], the binding result is listed as “binds”.
